Laboratory results: patent publication US12049482B2, “Molecular switch-mediated control of engineered cells” (THE GENERAL HOSPITAL CORPORATION, priority 2017, dated 2024)

What was measured:
CRBN [1] = target: CRBN (Homo sapiens, UniProt Q96SW2); assay: EGFP/mCherry reporter of zinc finger degron sequences, IMiD titration; type: cell-based; design: endogenous in cells; details: HEK239T cells, drug titration, 20 h
Protocol: A hybrid sequence of two distinct CRBN substrates, IKZF3 and ZFP91, was constructed and examined for activity within an “OFF-switch” system of the instant disclosure. In such experiments, reporter constructs containing zinc finger sequences were expressed in HEK239T cells via lentiviral transduction, after which the cells were treated with a titration of (IMiD) drug concentrations for 20 h. Flow cytometry was used to measure the EGFP/mCherry ratio normalized to the average of three DMSO treated controls. Data shown in FIG. 10 are representative of two experimental replicates (technical replicates=0, experimental replications=2).

CRBN [2] = assay: Internalization and degradation of CD28-degron-GFP in 293T cells; type: cell-based, human; details: 10 μM pomalidomide, 293T cells with biallelic CRBN exon 5 disruption
Protocol: Transduced cells were incubated with a range of Pomalidomide concentrations or DMSO for 20 hours. Cells were analyzed by flow cytometry for eGFP and mCherry fluorescence. 1000 mCherry+ cells were analyzed per sample, and the geometric mean of the per-cell eGFP/mCherry ratio was calculated in Flowjo. In Pomalidomide dose titration studies, the EC50 was calculated by non-linear regression in Prism. Experiments were performed in triplicate. In some cases cell surface protein expression was assayed in parallel with the above reporter assay; cells were stained with anti-CD28-BV421 antibody (BD Biosciences 562613) at a 1:50 dilution in FACS buffer (PBS+2% FCS+2 mM EDTA) for 10 minutes on ice. Cells were washed with FACS buffer and analyzed by flow cytometry.

IKZF3aa130-189 = assay: BRET assay, dimerization of IKZF3aa130-189 with CRBN or minCRBN variants; type: cell-based, human; details: pomalidomide dose-response
Chain of IKZF3aa130-189 (Q9UKT9 130-189 limits assumed, one chain of several): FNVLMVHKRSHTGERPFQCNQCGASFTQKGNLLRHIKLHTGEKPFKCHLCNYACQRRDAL
Protocol: Specifically, CRBN deletion variants were engineered to retain binding to Pom/IKZF3 but not DDB1/CUL4. Four deletion variants were generated in CRBN that removed the DDB1-binding domain, as shown in the middle image (NTD is the N-terminal domain; LLP1 is Lon-like protease domain 1 (split into LLP1-N and LLP1-C regions); TBD is the Thalidomide binding domain). At middle, BRET assays were performed upon 293T cells harboring bialleleic CRISPR/Cas9 disruption of endogenous CRBN (293T-CRBNΔe5), to assess dimerization between IKZF3aa130-189 and CRBN or minCRBN variants (dose-response data shown are CRBN, minCRBN1, minCRBN2, minCRBN3 and minCRBN4). […] Pomalidomide-dependent dimerization was observed between IKZF3aa130-189-HaloTag and CRBN-Nanoluciferase (NLuc) or minCRBN2-4-NLuc. […] 1 day after transfection, cells were exposed to 1 μM pomalidomide for the number of hours indicated and GFP and mCherry fluorescence was measured by flow cytometry (eGFPmCherry levels were detected as 0.5 or less for the CRBN trace).
(§1) 293T cells were co-transfected with pFC14K and pFC32K plasmids expressing IKZF3-HaloTag and CRBN-Nanoluciferase fusion proteins and incubated overnight. Cells were then trypsinized and seeded into 96 well plates, at 40,000 cells per well. The BRET assay was performed per manufacturer's instructions (Promega™). In brief, cells were incubated for 2 hours with varying concentrations of Pomalidomide or DMSO, 10 μM MG132, and 100 nM HaloTag NanoBRET 618 Ligand. NanoBRET Nano-Glo substrate was added and donor (460 nm) and acceptor (618 nm) emission were measured within 10 minutes (EnVision, Perkin Elmer). Mean corrected milliBRET units (mBU) was calculated.
Tested forms of minimal CRBN included minCRBN1, minCRBN2, minCRBN3 and minCRBN4, each of which were aligned against the wild-type CRBN (FIG. 1; all tested minCRBNs lacked the DDB1-binding domain—minCRBN1 comprised amino acids 339-442 of CRBN (including the TBD); minCRBN2 comprised amino acids 317-442 of CRBN (including TBD and an N-terminal extended sequence relative to minCRBN1); minCRBN3 included all CRBN sequence other than amino acids 194-207 (deletion of the DDB1-binding domain); and minCRBN4 included all sequences other than amino acids 187-260 (deletion of the DDB1-binding domain)).

CD19scFv-CD28-IKZF3 = assay: BRET, split receptor: membrane-tethered or untethered minCRBN3 paired with CD19scFv-CD28-IKZF3; type: cell-based, human; details: 293T cells, 10 μM MG132, 2 hours of drug treatment
Chain of CD19scFv-CD28-IKZF3 (as listed by the source, one chain of several): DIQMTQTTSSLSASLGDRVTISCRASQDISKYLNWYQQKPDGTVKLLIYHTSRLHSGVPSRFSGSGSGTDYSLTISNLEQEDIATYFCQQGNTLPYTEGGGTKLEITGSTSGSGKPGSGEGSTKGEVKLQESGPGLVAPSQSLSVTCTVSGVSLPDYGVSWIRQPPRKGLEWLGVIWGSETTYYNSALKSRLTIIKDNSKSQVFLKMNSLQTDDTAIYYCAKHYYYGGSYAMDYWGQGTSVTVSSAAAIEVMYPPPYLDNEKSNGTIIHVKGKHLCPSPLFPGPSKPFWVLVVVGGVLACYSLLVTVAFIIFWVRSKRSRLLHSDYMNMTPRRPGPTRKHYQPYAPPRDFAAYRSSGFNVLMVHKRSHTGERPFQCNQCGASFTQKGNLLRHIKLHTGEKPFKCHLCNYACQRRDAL
Protocol: as §1
Specific minCRBN-presenting polypeptide tethers to the plasma membrane that were tested included: (1) a CD8/CD28 system in which about 36 amino acids of TMD and cytosolic sequence connected to the co-stimulatory/minCRBN domains of the thereby membrane-tethered polypeptide; (2) a PD1 Y F ITAM/ITSM construct, in which minCRBN was tethered to the plasma membrane via a TMD and cytosolic domain of approximately 100 amino acids in length; and (3) a LYN-CD28 construct, in which membrane tethering was achieved via myristoyl/palmitoylation.

Chain of CRBN (Homo sapiens, UniProt Q96SW2) (Q96SW2 whole entry): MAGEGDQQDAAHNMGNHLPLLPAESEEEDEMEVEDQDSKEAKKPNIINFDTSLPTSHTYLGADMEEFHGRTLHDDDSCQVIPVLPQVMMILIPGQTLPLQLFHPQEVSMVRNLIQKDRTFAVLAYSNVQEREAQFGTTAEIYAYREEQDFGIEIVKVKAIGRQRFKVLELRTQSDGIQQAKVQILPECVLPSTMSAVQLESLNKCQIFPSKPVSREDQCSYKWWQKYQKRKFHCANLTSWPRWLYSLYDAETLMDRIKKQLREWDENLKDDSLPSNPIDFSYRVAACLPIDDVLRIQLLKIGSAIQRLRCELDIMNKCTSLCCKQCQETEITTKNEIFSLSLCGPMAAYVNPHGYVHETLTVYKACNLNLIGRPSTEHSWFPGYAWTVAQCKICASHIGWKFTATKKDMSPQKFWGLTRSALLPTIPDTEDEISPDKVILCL

IKZF3/ZFP91: Reverse hybrid, IKZF3 amino acids 146-156 + ZFP91 amino acids 411-422, SEQ ID NO: 33 (FQCNQCGASFTQKASLNWHMKKH)
IMiD sensitivity (EGFP/mCherry ratio normalized to DMSO) (CRBN [1]): minimal IMiD sensitivity/responsiveness

ZFP91/IKZF3 hybrid: ZFP91 amino acids 400-410 + IKZF3 amino acids 157-168, SEQ ID NO: 32 (LQCEICGFTCRQKGNLLRHIKLH)
IMiD sensitivity (EGFP/mCherry ratio normalized to DMSO) (CRBN [1]): greater IMiD sensitivity than either the ZFP91 degron sequence alone or the IKZF3 degron sequence alone

CD28-degron: In frame fusion of full length CD28, a SG linker, and IKZF3 (amino acids 130-189); SEQ ID NO: 82
degradation (normalized GFP levels) (CRBN [2]): no significant decline in normalized GFP levels

B1: minCRBN3: All CRBN sequence other than amino acids 194-207 (deletion of the DDB1-binding domain), SEQ ID NO: 3 (protein)
chain: AGEGDQQDAAHNMGNHLPLLPESEEEDEMEVEDQDSKEAKKPNIINFDTSLPTSHTYLGADMEEFHGRTLHDDDSCQVIPVLPQVMMILIPGQTLPLQLFHPQEVSMVRNLIQKDRTFAVLAYSNVQEREAQFGTTAEIYAYREEQDFGIEIVKVKAIGRQRFKVLELRTQSDGIQQAKVQILPECVLPSTYDAETLMDRIKKQLREWDENLKDDSLPSNPIDFSYRVAACLPIDDVLRIQLLKIGSAIQRLRCELDIMNKCTSLCCKQCQETEITTKNEIFSLSLCGPMAAYVNPHGYVHETLTVYKACNLNLIGRPSTEHSWFPGYAWTVAQCKICASHIGWKFTATKKDMSPQKFWGLTRSALLPTIPDTEDEISPDKVILCL
pomalidomide-dependent dimerization with IKZF3 degron (mBU) (IKZF3aa130-189): pomalidomide-dependent interactions | pomalidomide-dependent interaction with IKZF3 degron split receptor (BRET) (CD19scFv-CD28-IKZF3): to a significantly lesser extent than any of the various plasma membrane-tethered versions
